This is an account of results in paper PMC10223678.

The test concerns the target recombinant EGF (rEGF) protein with SV5 and 6xHis tags (human). The test can be described thus: ELISA; titration ELISA: plates coated with rEGF at 5 µg/mL (BSA coating for negative controls, at the maximum tested nanobody concentration), blocked with 3% skimmed milk, biotinylated nanobodies serially diluted 1 h at RT, detected with streptavidin-HRP; KD estimated by the fitting function of ref. 37; triplicates.

B1: recombinant anti-EGF nanobody D6-4, biotinylated (VHH)
VHH: QVQLVESGGGSVQAGGSLRLSCTASGTRRYKYNVFDLGWFRQAPGQEREAVAAISTGGGRTYYADSVKGRFTISRDNAKNTVTLQMNNLKPEDTAIYYCAARRTNNANFRYWGQGTQVTVS
Turning to B1, the Kd was 370 nM.

B2: recombinant anti-EGF nanobody A8-1, biotinylated (VHH)
VHH: QVQLVESGGGSVQAGGSLRLSCTASGNSNYQYPHFDLGWFRQAPGQEREAVAAISSGGGRTYYADSVKGRFTISRDNAKNTVTLQMNNLKPEDTAIYYCAAVGSRTRNYRYWGQGTQVTVS
Consider B2, for which the Kd was 240 nM.
